This note sets out measurements from PMC9010608.

In data set [1] the target is T1, Strep-HP1021 (orphan response regulator) (Helicobacter pylori 26695) (UniProt O25665).
T1 sequence: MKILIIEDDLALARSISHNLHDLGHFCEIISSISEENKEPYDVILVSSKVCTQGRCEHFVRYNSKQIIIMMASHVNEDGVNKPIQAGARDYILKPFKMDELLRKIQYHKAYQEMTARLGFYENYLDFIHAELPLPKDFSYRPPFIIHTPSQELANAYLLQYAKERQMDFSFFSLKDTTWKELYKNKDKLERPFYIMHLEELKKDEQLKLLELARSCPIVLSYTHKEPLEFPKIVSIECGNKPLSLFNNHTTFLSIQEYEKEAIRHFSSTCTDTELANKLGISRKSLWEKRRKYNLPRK
Nature of the data set: EMSA. The note with it: EMSA: 50 mM Tris-Cl, 250 mM KCl, 5 mM DTT, pH 7.0, 100 ng/uL sheared salmon sperm DNA, 37 C 30 min, 20 uL, 4% native PAGE, footprinting: 37 C 30 min. On the technique in general: Mobility shift assays separate free from complexed probe on a gel.

For data set [2], the target named is T1, Strep-HP1021 (orphan response regulator) (Helicobacter pylori 26695). The experiment in a line: competition. The note with it: EMSA: 50 mM Tris-Cl, 250 mM KCl, 5 mM DTT, pH 7.0, 100 ng/uL sheared salmon sperm DNA, 37 C 30 min, 20 uL, 4% native PAGE, footprinting: 37 C 30 min.

As for “CCATTATCACTCCAATTTTAATTCTCATTTTTTTGCGAGTTTTTGATCTTTATAAATTCTAAAGGGGTATTAAACGCACTTCTAATAACGATTTTATAGCGCTTCAAAGATATAACACTAATTCATTTTAAATAATAATTAGTTAATGAACGCTTCCAGCCGGCTTCGTCAGTCGAAACATGTACGTGATTACATCCAACCTTGATTTCGTTATGTCTTCAAGGAAAAACACTTTAAGAATAGGAGAATAAG (double strand) [PureAmt (mutated ureAB promoter probe)]”, in data set [1], the binding entry is “no binding”.

With “CCATTATCACTCCAATTTTAATTCTCATTTTTTTGCGAGTTTTTGATCTTTATAAATTCTAAAGGGGTATTAAACGCACTTCTAATAACGATTTTATAGCGCTTCAAAGATATAACACTAATTCATTTTAAATAATAATTAGTTAATGAACGCTTCTGTTAATCTTAGTAAATCAAAACATTGCTACAATTACATCCAACCTTGATTTCGTTATGTCTTCAAGGAAAAACACTTTAAGAATAGGAGAATAAG (double strand) [PureA (ureAB promoter, AF700 probe)]”, the binding result in data set [1] is “binds”.

On to “CCATTATCACTCCAATTTTAATTCTCATTTTTTTGCGAGTTTTTGATCTTTATAAATTCTAAAGGGGTATTAAACGCACTTCTAATAACGATTTTATAGCGCTTCAAAGATATAACACTAATTCATTTTAAATAATAATTAGTTAATGAACGCTTCTGTTAATCTTAGTAAATCAAAACATTGCTACAATTACATCCAACCTTGATTTCGTTATGTCTTCAAGGAAAAACACTTTAAGAATAGGAGAATAAG (double strand) [PureA cold probe (unlabeled)]”, for which the binding result in data set [2] was “binds”.
